Drawing on publication PMC9728131, “Host acid signal controls Salmonella flagella biogenesis through CadC-YdiV axis”, this text covers Kd for two molecules.

Series [1] deals with T1, CadCc (Escherichia coli K-12 MG1655 (cloning template per Methods; text discusses Salmonella CadC)) (UniProt P23890).
T1 sequence: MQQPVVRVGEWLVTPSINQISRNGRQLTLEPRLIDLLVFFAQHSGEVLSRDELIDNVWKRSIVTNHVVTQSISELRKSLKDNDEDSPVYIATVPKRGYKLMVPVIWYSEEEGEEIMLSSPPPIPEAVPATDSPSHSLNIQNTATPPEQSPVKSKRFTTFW
The experiment in a line: BLI. To be noted: EMSA: 20 mM Tris-HCl pH 8.0, 100 mM NaCl, 1 mM MgCl2, 1 mM ZnCl2, 4% glycerol, RT 10 min (competition 4 C, 30 min + 30 min); BLI: PBS + 1 mM ZnCl2 (CadCc …).

In series [2] the target is T2, H-NS (Escherichia coli K-12 MG1655 (cloning …, UniProt P0ACF8 1-137)).
T2 sequence: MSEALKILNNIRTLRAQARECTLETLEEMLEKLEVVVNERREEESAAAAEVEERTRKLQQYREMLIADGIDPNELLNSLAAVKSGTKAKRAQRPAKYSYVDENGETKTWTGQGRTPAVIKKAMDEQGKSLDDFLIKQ
Put plainly: BLI; PBS without ZnCl2; printed unit umoL; kdis 0.0145/s; EMSA: 20 mM Tris-HCl pH 8.0, 100 mM NaCl, 1 mM MgCl2, 1 mM ZnCl2, 4% glycerol, RT 10 min (competition 4 C, 30 min + 30 min); BLI: PBS + 1 mM ZnCl2 (CadCc, 50 ug/mL) or PBS (H-NS), 25 C; footprinting: 30 C, 30 min. The conditions noted are these: protein: recombinant; tags: N-terminal 6xHis (pGL01); chain copies: 2; Methods: 'C-terminus'); blunt. (In general: In BLI a coated tip is dipped into the sample, and binding shifts an interference pattern.)

Usually Kd stands for a measure of binding affinity in units of concentration. As to “TCATCATATATAATGATAT (double strand) [19 nt overlap DNA of ydiV promoter]”, in series [1], the equilibrium dissociation constant (Kd) is 203 nM.

B1: 19 nt overlap DNA of ydiV promoter (dsDNA)
DNA 1: TCATCATATATAATGATAT
DNA 2: ATATCATTATATATGATGA
Turning to B1, the Kd in series [2] came out at 533 ± 12.7 nM.
